Results on three substances are retold here after patent US20120077730A1.

This test deals with human C5a receptor (C5aR) (human) (UniProt P21730). Description: cell-based or functional assay.

Bounds are passed on as bounds.

UniProt P21730, sequence (P21730 whole entry): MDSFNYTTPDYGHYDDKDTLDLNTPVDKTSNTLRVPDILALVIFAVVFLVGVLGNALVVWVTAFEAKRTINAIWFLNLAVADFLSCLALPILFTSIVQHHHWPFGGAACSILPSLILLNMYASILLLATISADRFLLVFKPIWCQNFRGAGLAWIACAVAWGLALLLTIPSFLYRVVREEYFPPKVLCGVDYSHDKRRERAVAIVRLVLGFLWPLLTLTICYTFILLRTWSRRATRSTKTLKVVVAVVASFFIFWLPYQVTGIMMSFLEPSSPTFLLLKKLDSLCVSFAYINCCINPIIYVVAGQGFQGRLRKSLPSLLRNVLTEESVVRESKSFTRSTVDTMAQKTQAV

Turning to “CHIPS variant clone 376 (ADC-1004; CHIPS ΔN/C format) (from UniProt A6QIG7 31-113)”, the C5aR blocking activity relative to wt CHIPS1-121 (% of wt CHIPS1-121) was more than 25 and the Chemotaxis IC50 stood at 0.5 µg/mL. “CHIPS ΔN/C (CHIPS31-113) (from UniProt A6QIG7 59-141)” yielded a Chemotaxis IC50 of 0.5 µg/mL. On the same count and under the same terms, next, “Wild-type (Wt) CHIPS1-121 (from UniProt A6QIG7 29-149)”: 0.1 µg/mL.
